± gives the standard deviation of the averaged measurements.

This series deals with Saccharomyces cerevisiae. As to the kind of experiment: protein stability index of tFT-peptide fusion (C-terminal peptide) (PSI (0-1 scale)); higher = more stable (slower turnover). The note with it: temperature: 30 C. Here is the method:
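MPS profiling in S. cerevisiae of the yeast C-terminome library: the last 12 aa of each annotated ORF are fused to the C-terminus of a sfGFP-mCherry timer, after a GGGS linker. Cells are FACS-sorted into 8 mCherry/sfGFP bins and deep-sequenced. PSI runs from 0 (unstable) to 1 (stable); wild type and das1Δ backgrounds, two technical replicates each.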

The mark [1] stands for this setting: genetic background: das1 deletion.

As for HAERERENMIYD [YGL108C C-terminal 12 aa], the protein stability index amounted to 0.7122 ± 0.0035 under setting [1] and 0.695 ± 0.029 (genetic background: wild type).
The matching figures for HAQKRVSNASAR [SKI6 C-terminal 12 aa]: 0.6983 ± 0.0028 and 0.6988 ± 0.0036.
The matching figures for HCLSNSASHSCG [YGR018C C-terminal 12 aa]: 0.675 ± 0.014 and 0.64 ± 0.014.
The matching figures for HFNSSSPQKVEF [LSM4 C-terminal 12 aa]: 0.721 ± 0.012 and 0.738 ± 0.03.
With HGHHNSSTSGHK [PBP1 C-terminal 12 aa], the protein stability index is, setting by setting: under setting [1], 0.694 ± 0.015; (genetic background: wild type) 0.714 ± 0.0077.
The matching figures for “HKTNLTRGSFYS [YIR020W-A C-terminal 12 aa]”: 0.70525 ± 6.6e-05 and 0.708 ± 0.041.
For HLGDPLWNFSVE [TMA20 C-terminal 12 aa] the same measures were 0.7244 ± 0.0043 and 0.707 ± 0.01.
Consider HLNESVYSKPLP [YIL028W C-terminal 12 aa], for which the protein stability index under setting [1] came out at 0.6938 ± 0.0028 and the protein stability index (genetic background: wild type) worked out at 0.678 ± 0.065.
Turning to HPNIDALLKKTE [MST27 C-terminal 12 aa], the protein stability index by setting is: under setting [1], 0.686 ± 0.014; (genetic background: wild type) 0.654 ± 0.035.
The matching figures for HSNTLKRKIEQV [PUS4 C-terminal 12 aa]: 0.7252 ± 0.0013 and 0.697 ± 0.012.
The matching figures for HTRRAFLIPFVF [TSC13 C-terminal 12 aa]: 0.547 ± 0.02 and 0.241 ± 0.011.
The matching figures for HVAPYAIIPFII [DFG10 C-terminal 12 aa]: 0.724 ± 0.0075 and 0.151 ± 0.024.
With HWRSVYDEFGEL [APE1 C-terminal 12 aa], the protein stability index under setting [1] is 0.721 ± 0.01 and the protein stability index (genetic background: wild type) is 0.701 ± 0.024.
The matching figures for IAEEIISMFAEN [YNR064C C-terminal 12 aa]: 0.692 ± 0.031 and 0.723 ± 0.016.
The matching figures for IALAEHRVERSN [CLB3 C-terminal 12 aa]: 0.718 ± 0.05 and 0.701 ± 0.033.
The matching figures for IAPIRIYKITKQ [EFM3 C-terminal 12 aa]: 0.686 ± 0.028 and 0.677 ± 0.039.
As for IAREIFHNVTNF [SEC39 C-terminal 12 aa], the protein stability index runs as follows: under setting [1], 0.724 ± 0.025; (genetic background: wild type) 0.695 ± 0.037.
The matching figures for IARLEKLLSGGV [LEA1 C-terminal 12 aa]: 0.692 ± 0.017 and 0.686 ± 0.0076.
The matching figures for IAVNYGQKDLIE [BRR1 C-terminal 12 aa]: 0.697 ± 0.033 and 0.669 ± 0.014.
The matching figures for IDLFRDAYNHEN [UPS2 C-terminal 12 aa]: 0.7353 ± 0.0064 and 0.70705 ± 3.4e-05.
For the sequence IDMLKMSNAEEY [YLR012C C-terminal 12 aa], the protein stability index turned out to be 0.672 ± 0.015 under setting [1] and 0.6642 ± 0.0041 (genetic background: wild type).
The matching figures for IEIVKDAKRKGY [MRP21 C-terminal 12 aa]: 0.70154 ± 7.3e-05 and 0.674 ± 0.017.
For IEKNHAKFTDLT [CSH1 C-terminal 12 aa] the same measures were 0.7074 ± 0.0034 and 0.731 ± 0.017.
For IFFILYTLFKLF [SFT1 C-terminal 12 aa] the same measures were 0.422 ± 0.0091 and 0.199 ± 0.01.
Turning to IFLNDVYFNLMV [YPR126C C-terminal 12 aa], the protein stability index is, setting by setting: under setting [1], 0.728 ± 0.016; (genetic background: wild type) 0.686 ± 0.012.
For IFNATASNPFGF [SLA1 C-terminal 12 aa] the same measures were 0.738 ± 0.029 and 0.747 ± 0.045.
Consider IFVFFVIWVLVN [SED5 C-terminal 12 aa], for which the protein stability index under setting [1] was 0.209 ± 0.019 and the protein stability index (genetic background: wild type) amounted to 0.211 ± 0.015.
IGEFADNVMPLA [PRY2 C-terminal 12 aa]: the protein stability index was 0.709 ± 0.026 under setting [1] and 0.712 ± 0.0076 (genetic background: wild type).
For IGISPSQNKWEK [REX3 C-terminal 12 aa] the same measures were 0.728 ± 0.02 and 0.7285 ± 0.0071.
For IIRDFLIEKGFI [YNL320W C-terminal 12 aa] the same measures were 0.731 ± 0.024 and 0.667 ± 0.009.
The matching figures for IKALQDSLFKDV [NUP188 C-terminal 12 aa]: 0.718 ± 0.013 and 0.705 ± 0.042.
In the case of “IKKGTPNNIAFL [YJL197C-A C-terminal 12 aa]”, the protein stability index by setting is: under setting [1], 0.7027 ± 0.0063; (genetic background: wild type) 0.704 ± 0.017.
The matching figures for “IKKRKVQNRAMS [YOL038C-A C-terminal 12 aa]”: 0.701 ± 0.017 and 0.73 ± 0.0083.
Sequence IKTDSVHELLKK [MFM1 C-terminal 12 aa] came in with a protein stability index under setting [1] of 0.704 ± 0.018 and a protein stability index (genetic background: wild type) of 0.696 ± 0.0083.
The matching figures for ILGNYRDIFKQA [RGA2 C-terminal 12 aa]: 0.726 ± 0.014 and 0.266 ± 0.077.
The matching figures for ILISTIYAHCSS [HFD1 C-terminal 12 aa]: 0.577 ± 0.0076 and 0.489 ± 0.015.
For ILLTPNNHGEMK [BDH1 C-terminal 12 aa] the same measures were 0.689 ± 0.03 and 0.684 ± 0.011.
The sequence ILPIHQEDPANR [MEP1 C-terminal 12 aa] had a protein stability index under setting [1] of 0.701 ± 0.011 and a protein stability index (genetic background: wild type) of 0.686 ± 0.042.
The matching figures for ILTAEKMRGNGN [RRP4 C-terminal 12 aa]: 0.686 ± 0.033 and 0.677 ± 0.027.
Regarding INFHSGSIFDAC [ENV11 C-terminal 12 aa], the protein stability index by setting is: under setting [1], 0.717 ± 0.029; (genetic background: wild type) 0.7009 ± 0.0015.
The matching figures for INKDMTKKKMKF [MFG1 C-terminal 12 aa]: 0.689 ± 0.029 and 0.677 ± 0.029.
On to IPKIPKIVNGFK [DCS1 C-terminal 12 aa], for which the protein stability index was 0.694 ± 0.012 under setting [1] and 0.6501 ± 0.0018 (genetic background: wild type).
The matching figures for IQAKLKISVHDI [BEM1 C-terminal 12 aa]: 0.674 ± 0.0062 and 0.681 ± 0.0069.
Turning to IQKLNKVLEDSI [ATP5 C-terminal 12 aa], the protein stability index reads like this: under setting [1], 0.6748 ± 0.0023; (genetic background: wild type) 0.675 ± 0.02.
For IRAAGGVVELIA [RPL28 C-terminal 12 aa] the same measures were 0.658 ± 0.0023 and 0.652 ± 0.038.
For IREFLEEIVDTQ [SUS1 C-terminal 12 aa] the same measures were 0.725 ± 0.081 and 0.728 ± 0.091.
Take ISISHSAVPNIV [YAL069W C-terminal 12 aa]: the protein stability index was 0.678 ± 0.0075 under setting [1] and 0.729 ± 0.037 (genetic background: wild type).
For ISLVFLWVSIEV [CSM4 C-terminal 12 aa] the same measures were 0.157 ± 0.018 and 0.173 ± 0.011.
For ISVYCGTTLEVM [TFC8 C-terminal 12 aa] the same measures were 0.44 ± 0.016 and 0.469 ± 0.013.
With ITEVNVSLEEKL [FHL1 C-terminal 12 aa], the protein stability index reads like this: under setting [1], 0.6842 ± 0.0013; (genetic background: wild type) 0.7078 ± 0.0013.
In the case of ITQARANTWLVV [YOR024W C-terminal 12 aa], the protein stability index is 0.654 ± 0.02 under setting [1] and 0.648 ± 0.0088 (genetic background: wild type).
The matching figures for ITRDESTATYKY [RTT101 C-terminal 12 aa]: 0.695 ± 0.0095 and 0.6686 ± 0.0022.
With “ITRTRLDSFVKT [YBR072C-A C-terminal 12 aa]”, the protein stability index came out at 0.696 ± 0.038 under setting [1] and 0.6292 ± 0.0014 (genetic background: wild type).
In turn, ITTKRSLCSSKD [PEX25 C-terminal 12 aa] showed a protein stability index under setting [1] of 0.673 ± 0.015 and a protein stability index (genetic background: wild type) of 0.695 ± 0.02.
The matching figures for IVTEWVKKPCLC [MUP3 C-terminal 12 aa]: 0.546 ± 0.013 and 0.489 ± 0.01.
The matching figures for “IYQPSRNRLVRY [YBR076C-A C-terminal 12 aa]”: 0.707 ± 0.025 and 0.7018 ± 0.0025.
Take KAFVEKLNSKKD [YBT1 C-terminal 12 aa]: the protein stability index was 0.707 ± 0.026 under setting [1] and 0.683 ± 0.011 (genetic background: wild type).
The matching figures for KAIEYFEEYQCW [FRE2 C-terminal 12 aa]: 0.722 ± 0.048 and 0.704 ± 0.052.
The matching figures for KAQRSIWGKKSQ [ERV46 C-terminal 12 aa]: 0.6703 ± 0.0035 and 0.682 ± 0.018.
Take KDDTPEDNLEDK [VBA5 C-terminal 12 aa]: the protein stability index by setting is: under setting [1], 0.6969 ± 0.0021; (genetic background: wild type) 0.71 ± 0.0088.
Turning to KDNSVGKILNST [BOP3 C-terminal 12 aa], the protein stability index by setting is: under setting [1], 0.667 ± 0.018; (genetic background: wild type) 0.71 ± 0.026.
For KDSELNIKSSKL [STR3 C-terminal 12 aa], the protein stability index by setting is: under setting [1], 0.78159 ± 0.00043; (genetic background: wild type) 0.79 ± 0.053.
The matching figures for KEDPDLRQSYQG [MGS1 C-terminal 12 aa]: 0.693 ± 0.016 and 0.649 ± 0.0099.
The matching figures for KEESGTTSLPTI [GGA1 C-terminal 12 aa]: 0.723 ± 0.02 and 0.704 ± 0.011.
For KESPANDQASNE [MLP2 C-terminal 12 aa] the same measures were 0.688 ± 0.0091 and 0.677 ± 0.032.
For KETFIQVWEKQE [SAD1 C-terminal 12 aa], the protein stability index is, setting by setting: under setting [1], 0.663 ± 0.0072; (genetic background: wild type) 0.651 ± 0.019.
For KFFNYDGSEGVF [OSI1 C-terminal 12 aa] the same measures were 0.7095 ± 0.0039 and 0.715 ± 0.022.
